These results are taken from the supplement of paper PMC7125110.

The labels stand for the following.
B1: glmS ribozyme (parent)
chain: AUAAAAGCGCCAGAACUACAGAAAUGUAGUUGACGAGGAGGAGGUUUAUCGAAUUUUCGGCGGAUGCCUCCAAA

Conditions in all cases: with glucosamine-6-phosphate
The variants in series [1] derive from B1. In words: kcat; higher = faster cleavage; RNA array. In a few lines: (§1)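 Over ~14 h at 37 °C, tiles were imaged as glucosamine-6-phosphate (40 μM to 10 mM) in HEPES/KCl/Mg(OAc)2 buffer flowed across sequenced MiSeq chips. The chips carried barcoded ribozyme variants transcribed in situ by E. coli RNA polymerase and tracked with a hybridised Cy3 probe. After normalisation to baseline and to non-cleaving reference variants, one- or two-exponential decay fits of per-tile medians gave kobs. kcat and KM followed from weighted Michaelis–Menten fits across concentrations.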

Variants of B1 are the subject of series [2]. The series is described as follows: self-cleavage kobs at 40 uM GlcN6P; higher = faster cleavage; RNA array. A digest of the protocol: as §1
The variants in series [3] derive from B1. In words: self-cleavage kobs at 160 uM GlcN6P; higher = faster cleavage; RNA array. A digest of the protocol:
as §1

Series [4] covers variants of B1. The series is described as follows: self-cleavage kobs at 640 uM GlcN6P; higher = faster cleavage; RNA array. A digest of the protocol: as §1
The variants in series [5] derive from B1. The series is described as follows: self-cleavage kobs at 2500 uM GlcN6P; higher = faster cleavage; RNA array. In a few lines: as §1
In series [6] the parent is B1. The series is described as follows: self-cleavage kobs at 10000 uM GlcN6P; higher = faster cleavage; RNA array. In a few lines: as §1
Variants of B1 are the subject of series [7]. In words: KM; higher = weaker cofactor use; RNA array. A digest of the protocol: as §1

± gives the standard error. For part of these data: Fewer inactive variants are shown than the library holds. Some results are limits rather than exact numbers.

For the variant A14G C16G, the kcat in series [1] worked out at 0.0069 ± 0.0022 s⁻¹. In addition, the “self-cleavage kobs at 40 uM GlcN6P” value in series [2] stood at 0.000569 ± 8.6e-05 s⁻¹. In addition, the “self-cleavage kobs at 160 uM GlcN6P” value in series [3] amounted to 0.00113 ± 0.00027 s⁻¹. The “self-cleavage kobs at 640 uM GlcN6P” value in series [4] amounted to 0.00514 ± 0.0008 s⁻¹. Besides, the “self-cleavage kobs at 2500 uM GlcN6P” value in series [5] was 0.00397 ± 0.0011 s⁻¹. Besides, the “self-cleavage kobs at 10000 uM GlcN6P” value in series [6] was 0.00854 ± 0.0016 s⁻¹.

Take C58A U69C: the kcat in series [1] was found to be 0.000112 ± 1.3e-05 s⁻¹. Further, the Michaelis constant (KM) in series [7] worked out at 640 ± 220 µM. Moreover, the “self-cleavage kobs at 160 uM GlcN6P” value in series [3] came out at 3.58e-05 ± 1.2e-05 s⁻¹. For the same variant, in series [4], the “self-cleavage kobs at 640 uM GlcN6P” value was determined as 4.91e-05 ± 1e-05 s⁻¹. For the same variant, the “self-cleavage kobs at 2500 uM GlcN6P” value in series [5] stood at 9.46e-05 ± 2.2e-05 s⁻¹. Also, the “self-cleavage kobs at 10000 uM GlcN6P” value in series [6] came out at 0.000107 ± 1.5e-05 s⁻¹.

For the variant A48U C71U, the turnover number (kcat) in series [1] came to 0.000562 ± 8.4e-05 s⁻¹. For the same variant, the KM in series [7] turned out to be 1890 ± 590 µM. The “self-cleavage kobs at 640 uM GlcN6P” value in series [4] came out at 0.000153 ± 2.3e-05 s⁻¹. The “self-cleavage kobs at 2500 uM GlcN6P” value in series [5] was 0.000338 ± 5.6e-05 s⁻¹. Moreover, the “self-cleavage kobs at 10000 uM GlcN6P” value in series [6] was determined as 0.000461 ± 5.6e-05 s⁻¹.

As to A14U G29U, the kcat in series [1] worked out at 0.000435 ± 4.6e-05 s⁻¹. Further, the Michaelis constant (KM) in series [7] worked out at 2040 ± 400 µM. Also, the “self-cleavage kobs at 40 uM GlcN6P” value in series [2] came to 2.02e-05 ± 9.5e-06 s⁻¹. Further, the “self-cleavage kobs at 160 uM GlcN6P” value in series [3] is 3.57e-05 ± 7.2e-06 s⁻¹. Moreover, the “self-cleavage kobs at 640 uM GlcN6P” value in series [4] was found to be 0.000104 ± 9.7e-06 s⁻¹. The “self-cleavage kobs at 2500 uM GlcN6P” value in series [5] was 0.000222 ± 2e-05 s⁻¹. For the same variant, the “self-cleavage kobs at 10000 uM GlcN6P” value in series [6] came to 0.000381 ± 3.2e-05 s⁻¹.

As to G35U U54G C70A, the kcat in series [1] was found to be 1.53e-05 ± 4.8e-06 s⁻¹. In series [5], the “self-cleavage kobs at 2500 uM GlcN6P” value was less than 1e-05 s⁻¹.

As for C11U U31C A52U, in series [1], the turnover number (kcat) is less than 1e-05 s⁻¹.

For the variant G13C, the catalytic constant (kcat) in series [1] turned out to be 0.000191 ± 5.2e-06 s⁻¹. For the same variant, in series [7], the Michaelis-Menten constant (KM) came out at 4220 ± 250 µM. Besides, in series [4], the “self-cleavage kobs at 640 uM GlcN6P” value amounted to 2.7e-05 ± 1.3e-06 s⁻¹. The “self-cleavage kobs at 2500 uM GlcN6P” value in series [5] came to 6.98e-05 ± 1.4e-06 s⁻¹. Besides, in series [6], the “self-cleavage kobs at 10000 uM GlcN6P” value was 0.000135 ± 1.8e-06 s⁻¹.

As for G41U C58A, the turnover number (kcat) in series [1] amounted to 1.21e-05 ± 4e-06 s⁻¹.

Regarding U47C C70G, the kcat in series [1] came to 0.000161 ± 3.3e-05 s⁻¹. Further, in series [3], the “self-cleavage kobs at 160 uM GlcN6P” value was found to be 7.93e-05 ± 2.2e-05 s⁻¹. Besides, the “self-cleavage kobs at 640 uM GlcN6P” value in series [4] was determined as 0.000172 ± 3.5e-05 s⁻¹. For the same variant, the “self-cleavage kobs at 2500 uM GlcN6P” value in series [5] worked out at 0.00012 ± 3e-05 s⁻¹. Further, the “self-cleavage kobs at 10000 uM GlcN6P” value in series [6] came to 0.000256 ± 0.0001 s⁻¹.

Regarding G37A C71A, the catalytic constant (kcat) in series [1] worked out at 0.000462 ± 4.6e-05 s⁻¹. Further, the KM in series [7] came to 1520 ± 410 µM. Besides, in series [3], the “self-cleavage kobs at 160 uM GlcN6P” value amounted to 5.16e-05 ± 2e-05 s⁻¹. For the same variant, the “self-cleavage kobs at 640 uM GlcN6P” value in series [4] was determined as 0.000114 ± 2.7e-05 s⁻¹. Also, the “self-cleavage kobs at 2500 uM GlcN6P” value in series [5] came to 0.000331 ± 4.6e-05 s⁻¹. Moreover, the “self-cleavage kobs at 10000 uM GlcN6P” value in series [6] was 0.000391 ± 3.8e-05 s⁻¹.

Turning to G29A U30A, the kcat in series [1] came to 0.00133 ± 0.00052 s⁻¹. In addition, in series [2], the “self-cleavage kobs at 40 uM GlcN6P” value is 2.98e-05 ± 1.5e-05 s⁻¹. For the same variant, the “self-cleavage kobs at 160 uM GlcN6P” value in series [3] was 5.7e-05 ± 2e-05 s⁻¹. Also, the “self-cleavage kobs at 640 uM GlcN6P” value in series [4] was 0.000149 ± 2.4e-05 s⁻¹. The “self-cleavage kobs at 2500 uM GlcN6P” value in series [5] is 0.000752 ± 0.00014 s⁻¹. In addition, in series [6], the “self-cleavage kobs at 10000 uM GlcN6P” value is 0.000862 ± 0.00016 s⁻¹.

On to G13U G29U C70A, for which, in series [1], the kcat was found to be 3.94e-05 ± 1.3e-05 s⁻¹. Besides, the “self-cleavage kobs at 2500 uM GlcN6P” value in series [5] is 4.33e-05 ± 1.9e-05 s⁻¹.

In the case of U57A C68A, the kcat in series [1] turned out to be 2.64e-05 ± 5.2e-06 s⁻¹.

With C10U A15G, the kcat in series [1] worked out at 2.54e-05 ± 2e-06 s⁻¹. Moreover, the Michaelis constant (KM) in series [7] is 4700 ± 910 µM. The “self-cleavage kobs at 40 uM GlcN6P” value in series [2] is less than 1e-05 s⁻¹.

Take G32A C70A: in series [1], the kcat came to 7.22e-05 ± 1.4e-05 s⁻¹. In series [4], the “self-cleavage kobs at 640 uM GlcN6P” value is 8.06e-05 ± 1.2e-05 s⁻¹. The “self-cleavage kobs at 2500 uM GlcN6P” value in series [5] worked out at 8.73e-05 ± 8.9e-06 s⁻¹. The “self-cleavage kobs at 10000 uM GlcN6P” value in series [6] turned out to be 5.13e-05 ± 8.6e-06 s⁻¹.

With U31C U54A, the kcat in series [1] came out at 0.00685 ± 0.0022 s⁻¹. The KM in series [7] was found to be 2980 ± 1300 µM. The “self-cleavage kobs at 40 uM GlcN6P” value in series [2] worked out at 0.000119 ± 1.5e-05 s⁻¹. Further, in series [3], the “self-cleavage kobs at 160 uM GlcN6P” value turned out to be 0.000268 ± 5.9e-05 s⁻¹. The “self-cleavage kobs at 640 uM GlcN6P” value in series [4] is 0.00122 ± 0.00019 s⁻¹. In series [5], the “self-cleavage kobs at 2500 uM GlcN6P” value worked out at 0.00228 ± 0.00051 s⁻¹. For the same variant, the “self-cleavage kobs at 10000 uM GlcN6P” value in series [6] turned out to be 0.006 ± 0.00078 s⁻¹.

For G29C U47C, the catalytic constant (kcat) in series [1] was 0.000131 ± 7.3e-06 s⁻¹. The KM in series [7] stood at 1730 ± 250 µM. Moreover, the “self-cleavage kobs at 640 uM GlcN6P” value in series [4] amounted to 3.72e-05 ± 1.8e-05 s⁻¹. Further, in series [5], the “self-cleavage kobs at 2500 uM GlcN6P” value came out at 7.73e-05 ± 1.5e-05 s⁻¹. Besides, the “self-cleavage kobs at 10000 uM GlcN6P” value in series [6] is 0.000112 ± 2.7e-05 s⁻¹.
